Assay results as given in US20230295310A1 (ABCELLERA BIOLOGICS, published 2023).

Columns and labels:
[1] = target: T1, cynomolgus monkey CD3 expressed on cyno primary T cells (cynomolgus monkey, UniProt Q95LI5 22-198; Q95LI8 22-171; Q95LI7 23-181); assay: flow cytometry, 25 nM, cyno primary T cells
T1 construct: whole, on cells; CD3 complex on purified cynomolgus monkey CD3 pan T cells; also called cyno CD3
In short: (§1)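 Flow cytometric binding was measured after cells were incubated with antibody (25 nM, PBS+2% FBS) at 4° C for 30 minutes. Signals were normalized to isotype to yield FOI, with ≥10 scored positive.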

[2] = target: T2, human CD3 expressed on cells (Jurkat cells; human primary T cells) (human, UniProt P07766 23-207; P04234 22-171; P09693 23-182); assay: flow cytometry, 25 nM, Jurkat cells
T2 construct: whole, on cells
In short: as §1

[3] = target: T2, human CD3 expressed on cells (Jurkat …); assay: flow cytometry, 25 nM, human primary T cells
In short: as §1

[4] = target: T3, cynomolgus monkey CD3 expressed on primary T cells (cynomolgus monkey, UniProt Q95LI5 22-198; Q95LI8 22-171; Q95LI7 23-181); assay: flow cytometry, 25 nM, cyno primary T cells
T3 construct: whole, on cells; CD3 complex on purified cynomolgus monkey T cells; also called cyno CD3
In short: as §1

[5] = target: T4, human CD3 expressed on cells (human, UniProt P07766 23-207; P04234 22-171; P09693 23-182); assay: flow cytometry, human primary T cells (Jurkat cells in c2 gave 15.495, CD3 KO Jurkat cells in c3 gave 38.63)
T4 construct: whole, on cells; CD3 complex on Jurkat cells and on human primary T cells
Description: Purified antibodies were confirmed to bind CD3 expressed on cells using the CytoFLEX S or LX flow cytometers (Beckman Coulter). Antibodies were diluted to 25 nM in FACS buffer (PBS+2% FBS) and were incubated with CD3-expressing cells for 30 minutes at 4° C. […] The median fluorescence intensity of the binding signal for each antibody was normalized to the isotype control to obtain a fold over isotype value. An antibody with a fold over isotype (FOI) of ≥10 was considered to be positive for binding.

[6] = target: T4, human CD3 expressed on cells; assay: flow cytometry, 25 nM
In short: as §1

T1 sequence (Q95LI5 22-198, chain 1 of 3): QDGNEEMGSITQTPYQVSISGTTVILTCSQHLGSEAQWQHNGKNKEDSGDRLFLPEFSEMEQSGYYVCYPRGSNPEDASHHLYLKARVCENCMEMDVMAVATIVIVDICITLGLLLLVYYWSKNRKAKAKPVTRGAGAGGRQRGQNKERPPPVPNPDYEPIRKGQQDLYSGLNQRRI
T1 sequence (Q95LI8 22-171, chain 2 of 3): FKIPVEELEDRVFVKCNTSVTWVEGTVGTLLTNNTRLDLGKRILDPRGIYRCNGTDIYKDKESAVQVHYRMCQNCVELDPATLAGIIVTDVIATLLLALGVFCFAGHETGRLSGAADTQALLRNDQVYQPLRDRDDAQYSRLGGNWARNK
T1 sequence (Q95LI7 23-181, chain 3 of 3): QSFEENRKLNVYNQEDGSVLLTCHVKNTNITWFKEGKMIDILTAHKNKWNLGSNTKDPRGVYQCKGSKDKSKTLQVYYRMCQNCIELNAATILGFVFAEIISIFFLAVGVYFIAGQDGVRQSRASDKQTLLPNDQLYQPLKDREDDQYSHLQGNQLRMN
T2 sequence (P07766 23-207, chain 1 of 3): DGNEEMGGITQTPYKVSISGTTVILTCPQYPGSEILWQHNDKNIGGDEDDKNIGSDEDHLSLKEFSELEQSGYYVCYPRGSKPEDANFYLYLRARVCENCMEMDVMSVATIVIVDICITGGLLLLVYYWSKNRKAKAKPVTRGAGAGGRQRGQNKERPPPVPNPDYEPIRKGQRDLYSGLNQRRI
T2 sequence (P04234 22-171, chain 2 of 3): as the sequence (Q95LI8 22-171, chain 2 of 3) above, with V5I, K15N, V20I, T32S, N33D, N34I, A64T, N74S, L83V, R141H counted along it
T2 sequence (P09693 23-182, chain 3 of 3): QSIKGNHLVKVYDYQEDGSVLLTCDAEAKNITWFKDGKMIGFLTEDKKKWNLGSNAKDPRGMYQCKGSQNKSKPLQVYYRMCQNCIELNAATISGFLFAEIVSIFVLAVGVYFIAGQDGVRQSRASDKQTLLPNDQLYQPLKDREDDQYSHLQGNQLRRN
T4 sequence (P07766 23-207, chain 1 of 3): as the sequence (P07766 23-207, chain 1 of 3) above
T4 sequence (P04234 22-171, chain 2 of 3): as the sequence (Q95LI8 22-171, chain 2 of 3) above, with V5I, K15N, V20I, T32S, N33D, N34I, A64T, N74S, L83V, R141H counted along it
T4 sequence (P09693 23-182, chain 3 of 3): as the sequence (P09693 23-182, chain 3 of 3) above
T3 sequence (Q95LI5 22-198, chain 1 of 3): as the sequence (Q95LI5 22-198, chain 1 of 3) above
T3 sequence (Q95LI8 22-171, chain 2 of 3): as the sequence (Q95LI8 22-171, chain 2 of 3) above
T3 sequence (Q95LI7 23-181, chain 3 of 3): as the sequence (Q95LI7 23-181, chain 3 of 3) above

Binding (FOI) [1] | Binding (FOI) [2] | Binding (FOI) [3] | binding result [4] | Jurkat Cell Binding (FOI) [6] | Binder | binding result [5]
45.1 FOI | 121 FOI | 146 FOI |  |  | mAb 177 (antibody, V domains shown, VH/VL only; the printed VL holds a letter U) VH: EVQLVESGGGLVQPGMSLRLSCAASGFTFDDYTMHWVRQSPGKGLEWVAGISWNSGTIGYGDSMKGRFTISRDNAKNSLDLQMNSLRVEDTALYYCAKDTSGYGHYYYYFMDVWGKGTTVTVSS VL: DIQMTQSPSSLSASIGDRVSITCRTSQIINNYLNWYQQKPGKAPKLLIYSASSLQSGVPSRFSGSGSGTDFTLTLSSLQPEDFATYFCQQSYNFPITFGQGTRLELK | 
 |  |  | no binding (tested: FOI >=10 = positive) | 15.5 FOI | mAb 143 (antibody, V domains shown) VH: QVQLMQSGSELEKPGASVKVSCKASGYTFTSFAINWVRQAPGQGLEWMGWINTITGNPSYAQGFTGRFVFSLDTSVTTAFLQINSLKTEDTAVYYCARYVTSSGKFDYWGQGTLVTVSS VL: DIQMTQSPSSVSASVGDRVTITCRASRGISRWLDWYQQKPGKAPKLLIYAASNLQGGVPSRFSGSGSGTDFTLTIRSLQPEDFAIYYCQQAKTFPFTFGPGTKVDIK | no binding (tested: FOI >=10 = positive; 25 nM)
158 FOI | 128 FOI | 172 FOI |  |  | mAb 178 (antibody, V domains shown, VH/VL only) VH: EVQLVESGGGLVQPGRSLRLSCAASGFTFDDYTMHWVRQAPGKGLEWVSDISWNSGTIGYADSVKGRFTISRDNAKNSLYLQMNSLRAEDTALYYCVKDSSGYGHYYKYYMDVWGKGTTVTVSS VL: DIQMTQSPSSLSASVGDRVTITCRASQSISNYLNWYQQKAGKVPKVLIYGSSSLQSGVPSRFSGSGSGTDFTLTISSLQPEDFASYYCQQTYSSPLTFGGGTKVDFK | 
54.2 FOI | 129 FOI | 177 FOI |  |  | mAb 179 (antibody, V domains shown, VH/VL only) VH: EVQLVESGGGLVQPGRSLRLSCAASGFTFDDYTMHWVRQTPGKGLEWVSDISWNSGSIGYADSVKGRFTISRDNAKNTLYLQMNSLRAEDTALYYCVKDSSGYGHYLYYYMDVWGKGTTVTVSS VL: DIQMTQSPSSLSASVGDRVTITCRASQSIRNYLNWYQQSPGRAPKLLIFSASSLQSGVPSRFSGSGSGTDFTLTISSLQPEDFVTYYCQQRYSTPITFGQGTRLEIK | 
